This is an account of results in a protein production outcome set (Wang et al. 2014).
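Also: failed if final PepcDB status was selected cloned or expressed and not failed if soluble or beyond.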

This data set is described as follows: label from the status in PepcDB records.
As for “MAEIDYKKVTGMIHSTESFGSVDGPGIRFIIFMQGCKMRCQYCHNPDTWEMETNNSKERTVEDVLKEALRYKHFWGKDGGITVSGGEAMLQIDFITALFIEAKKLGIHTTLDTCGFAYRATPEYHAILEKLLDVTDLVLLDLKEIDSEQHKIVTRQSNKNILQFARYLSDRGTPVWIRHVLVPGLTDIDDHLKRLGEFVQTLDNVDKFEVLPYHTMGEFKWRELGIPYPLAGVKPPTPERVKNAKDIMKTESYTEYLKRIQN”, the protein production entry is “not failed”.

As to “NRWITRPKFTHFDLHTLNWDLCLTQANHKSGLALDMLRMLLDSLPQTVSAIEAALSQNDQVTMLSTIHKLHGASCYCGVPTTQRLCQEIESALKREARVEDLEPEILELLDELTKVESAAKQVLSQLSAEITDDQKNGLL”, the protein production entry was “failed”.

Regarding “MLEGESAPEPVIEISKLELTDYVKCNLPPEVIKYYESELELLTQEIKSEKKNPAFAYCRRGAIYRKLGKLQSAMNDLQETIFVEPLFLNAYWHRHFIYLFQDKINDALDDLNFITKYNKNHAEAYLSKAEIFREKNDITLAILNYSQAIKCRPKDASLYFKRGEMYEKTNKVLAIDDFSKGLDQAVTHVTESAQIFPPLLGQNDCIYYDPKRSDALWKRGMFYFENENWTGAVYDFTSLLKLEPHNSQARTNRGRAYFKRNLFKQATEDFSAAIHSDPNNWLALYYRACLFRKCSPQRALQDYSVSVSVSVLCSPGFKLFIYKVNGMSEFTTSFHEFVNCDCHVLINDGYDNLNCFLHRGILYTELKFWMLAVCDFETVVTLERIKAIISSRGQYLLMMKSYDLAKLTIFQVAEMNKGVIELSPIQEALIYSFCENHDKAIHVLEGVIANKPDISTYALLAKAQMKAKRIKESVRLFKKALELYTFSDKGPAATSVSADCLYNLGLCYMEEGNFQMNYKLAITDLTTAVGMDKNSYTAFYNRALCYTKIKKHEMALRDYGIVLLLQAGETIALNTLVNRGLIYTELEQYGFALEDFKEASMISETSVKLCQATAMCHHRIKEFQGAVEFFTRAIKINPRYLDAYIGRGNSYMEYEQNKAMIQAQKDFLRALHLDPSNLKARISLGYNLQAQGKFQKAWQHFTIGIEANPKNYLAYEGRAVVCLQMSNYFAAMQDINCAIKINSTAEFLTNRGVIHEFMGQQQNAMADYQAAISLDPNYSLAYFNAGNIYLHHRQFSQATDYFSTALKLNPENECALMNRAVTNSVLKKYEEAEKDFSHAMELCPHWAALYFNRASFYVYLKKYELAEEDLDRALSLKPDDAIMYNLRAQVRGKIGLIEEAMCDYNQALDLEEYSKAM”, the protein production result was “failed”.

With “MSQSSSPQQIPVVVLAGFLGSGKTTLLNHLLHRSGGSRIGAIVNDFGAIEIDAMAVAGALGDSTVSLGNGCLCCAVDAGELDLYLERLAHPSARVDVIVIEASGLAEPQELVRMVLASENARVVYGGLVEVVDAAEFDATRAKHPEVDRHLAMADLVVVNKIDRADDGERVLRAVRSLTDRAAVVPATYGRVDPELLFDCRPTGERIGQLSFDDLHEHRGEEDHHGHLHAAYDSVSFTSEAPMNPRRMMDFLDSRPEGLYRIKGYVDFGTADPRNRYAVHAVGRFLRFYPEPWAPAGPRLTQLVLIGSGIDTAALHKELDACTNDAPHADEHSMWGVLRYVQEQEQEQEQRQETAEAEQAG”, the protein production entry is on record as “failed”.

Turning to “MAHHHHHHMRKIYIAGPAVFNPDMGASYYNKVRELLKKENVMPLIPTDNEATGALDIRQKNIQMIKDCDAVIADLSPFRGHEPDCGTAFEVGYAAALNKMVLTFTSDRRNMREKYGSEVDKDNLRVEGFGLPFNLMLYDGVEVFDSFESAFKYFLANFPSK”, the protein production entry is “not failed”.

In the case of “MAGHTDNEITIAAPMELVWNMTNDIEKWPGLFSEYASVEVLGRDDDKVTFRLTMHPDADGKVWSWVSERVADPVTRTVRAQRVETGPFQYMNIVWEYAETAEGTVMRWTQDFAMKPDAPVDDAWMTDNINRNSRTQMALIRDRIEQAAGERRTASVLADLEHHHHHH”, the protein production result is “not failed”.

With “MKLLSQLLLFTSLTFPLSSFAALGEHPIILIHGFQAGQLQTKPNHDAVVADGKNYWQDYWLAKADDRIDWPSQERVAGKISTDYIWPKLQELSKNNTCKNGCILVTHSTGDLVARHLLDNQENW”, the protein production entry is listed as “failed”.

Turning to “MTYRDFIGRLKENGKLVEIQQPVSPIFEASRIAKKTKGPVLFHNVSGSKVIMNLLGSRDELSSMLGVPKEEIIKKLSEVSPEGEVRLVPGSPTLEVIESEVDLTKLPILTHFEKDGAPYITAGIVVSEYEGVMNASIHRLMLVGKDKLAARLVPPRHTYLLHKKAAEKGETLPVAIVLGCDPTIIYATSTRVPAGKEFEYAAALRGTPVEVFECSNGIKVPHSEIILEGYIDTKERVDEGPFVDITGTYDMVRKEPVIHITRIIHRKDPIYHGILPAGPEHLLMMGVPYEPRIYRAVGEVTTVKNVVLTEGGCCYLHAVVQIEKQTEGDAKNAIMAAFAAHTSLKHVVVVDEDINIFDPNDVEFAIATRVKGDMDILTITNVRGSSLDPRGASDGTTTKVGIDATKVLIEKENFERAIIPEELEHHHHHH”, the protein production result was “failed”.

As for “MYEAGLAEGESAYGHGGYISVPELPAGVAVRNSRRPDIIQESSYLRILAPAGGWLAAATLEKLADCAETYGRGLVHLTSGGTIEIYTGREQMLPLVRELNSGGLDVGSTGDDLRCLTACCGPVRCEHALVDAPALATYLGQRFIDDQQYPGYPQKVKSAVAGCPNDCIRAMMQKDHSFIGVYRDWPMVDGEMLAAWREKGGDLNGLLAACPAGALTLVGDTLEVDKERCWRCMACINYCPAIRPGRERGVAWVAGGKYGHRGPQGPMVGFVLVPFIPVADDDYTAVGDIFGAFLEFWADNAKKKERVGDFIARVGPLKILRELGLEAQPQILLSPKRNVY”, the protein production result was “failed”.

“MPTKKMTRAQTCPHQTTVISNLKIIPLTLGWLLKSALLIIIIAVFIPLSPKMPAPGLDASWAVGLNQAVAQGLAFGKDIFFTLGPYSSIYTKFYHPATDFMMVGGSLYLALCYWIAIILLMQGIKWRWSIAFAILLFSMIYARDSLFFSYSLIIGLLIHKEISGKETSFKSNFCTLFALLFTPFGLFPLIKGSLLILSIITVLLCSLFLILYKQRNLAVLCLASPVVSILFFWIASGQSIFNLPAYVSNTILLASGFTEAMAIEGDNKELIFFGVTSSCILLSILLQKQLSPLSKAFLFCIYLVFLFLSYKTGFTRHFGHAFIAGTSVLLASFLLPYFNSNNKVIVPLLALSLYTASYINGHYTKISVRDNFISTYTAAYYGLKNRIQNKNWLKENFSLTMNYLKARDDFPRLPGTTDIYSYNQTSLIASGMTWSPRPIFQSYSVFTAKMAEINTNYLLSENKPDNILFKVEPIDNRIPSMEDGMSWPILINHYQPVRLENDFLFLRKKLVNKPVTSLVPLKTEIHTFGEQVKIPDTDKSLFVEIDIQPTLWGMLATTFFKPHQLEANLELKNGTQRQYRLISNMAKSGFLLSPFIENSAEFGLLFSQNNYLAGKKVISFSINSKQVPSSHWQTKYTIHYKTFASNN”: the protein production result was “failed”.

In the case of “MSGKSSPLSVLEYLAIFAIIMTWGINNAAAKVATAYLPPMTVGGLRFLAALVFLFPFIRPPFPEPKKLAAIVLLTGPIHFGLVYVGFGMGQSLSPLVVASQLWIPFTALVAWKLLGETMRLPAVLGLIVAFVGVAWMTLDPHTSGDLPAIVLIVLASACWAVATILVRMTPGAKPLKVQAVTALFAAPSLLAMSFAFETQVVERVMTAPPIAWACVIFAGVVSTIGASALLFWLVQRREAGRVTPYFLLTPLVSCTLGVAFLGDKLTPQLLIGGAATMVGVALVAMTEKRARAEEALAETA”, the protein production result was “failed”.

As for “MLEQILLGTYTRRASQGIYKIALDTTQGRLTEATLLLEETSPTYLALSQKGELFSVTSVDGEGGTAAYQPEMDHFNLLNKVTEEGAPPCYVAVDENRQLVYAANYHQGIVHVYRILEDGSLEDADKVIHTEPTGPHENQNNAHVHYTDLTPDQRLVVCDLGTDRVYTYNVSLDGKLSEIAQFVTEPGTGPRHLVFHPTKSLAYLFGELDSTVSVLSYDETDGSFTELQKVSTLPADYDAFNGGAAIRISSDGRFLYASNRGHNSIAVYAVSENGEAIERIQLISTEGDIPRDFDLDPSEDFIVVANQDSDNLTLYRRNQETGLLEMIQKDVAVPECVCVLFVLEHHHHHH”, the protein production result was “not failed”.

For the sequence “MEGNCSQGRFDSQVSSMRDLRPNAINQNQKQHHPNSRQDSGFNNTMDTRHNNVDRGKKSMSEDDELCLLSSDGQNKSKENSPWQRVKWMDKMVKLMITALSYIGEDSGSDKKFAVLQKKGKWRSVSKVMDERGYHVSPQQCEDKFNDLNKRYKKLNEMLGRGTSCEVVENPSLLDKIDYLNEKEKDEVRRIMSSKHLFYEEMCSYHNGNRLHLPHDPAVQRSLHLITLGSRDDHDNDEHGKHQNEDLDDDDDYEEDHDGALSDRPLKRLRQSQSHEDVGHPNKGYDVPCLPRSQADVNRGISLDSRKAAGLQRQQIESKSLELEGRKLQIQAEMMELERQQFKWEVFSKRREQKLAKMRMENERMKLENERMSLELKRIELGAKL”, the protein production result is “failed”.

As for “MGSGGVVHCRCAKCFCYPTKRRIRRRPRNLTILSLPEDVLFHILKWLSVEDILAVRAVHSQLKDLVDNHASVWACASFQELWPSPGNLKLFERAAEKGNFEAAVKLGIAYLYNEGLSVSDEARAEVNGLKASRFFSLAERLNVGAAPFIWLFIRPPWSVSGSCCKAVVHESLRAECQLQRTHKASILHCLGRVLSLFEDEEKQQQAHDLFEEAAHQGCLTSSYLLWESDRRTDVSDPGRCLHSFRKLRDYAAKGCWEAQLSLAKACANANQLGLEVRASSEIVCQLFQASQAVSKQQVFSVQKGLNDTMRYILIDWLVEVATMKDFTSLCLHLTVECVDRYLRRRLVPRYRLQLLGIACMVICTRFISKEILTIREAVWLTDNTYKYEDLVRMMGEIVSALEGKIRVPTVVDYKEVLLTLVPVELRTQHLCSFLCELSLLHTSLSAYAPARLAAAALLLARLTHGQTQPWTTQLWDLTGFSYEDLIPCVLSLHKKCFHDDAPKDYRQVSLTAVKQRFEDKRYGEISQEEVLSYSQLCAALGVTQDSPDPPTFLSTGEIHAFLSSPSGRRTKRKRENSLQEDRGSFVTTPTAELSSQEETLLGSFLDWSLDCCSGYEGDQESEGEKEGDVTAPSGILDVTVVYLNPEQHCCQESSDEEACPEDKGPQDPQALALDTQIPATPGPKPLVRTSREPGKDVTTSGYSSVSTASPTSSVDGGLGALPQPTSVLSLDSDSHTQPCHHQARKSCLQCRPPSPPESSVPQQQVKRINLCIHSEEEDMNLGLVRL”, the protein production result was “failed”.

Consider “MTMYADLVLHGGSIATLDDKLEQAQAVAIAAGRIIAVGSDAHCLALAGPGTRRIGLGGACVMPGINDSHCHPDGQAVKAGRWDDVSQVATQQALLARIADFHRRMPAGAWYLGFRFDDTHSGGYPARQALEQAAPGRPVFLLRRDAQVGLASAPALAALLASGLATQVPPHCLDAATGLARGRGVFAFTTHIAAADSLDDYLEGFPTLFAEMGRMGITSVHNALTSALAVQAYRALHGAGRLPVRVGMMLNGRDQRLVDETLAAGLRFGAGDDRLYLLGVEYGSDGSTSGRTAAYYQPYVGEEGGDGRPANRGDVNFSAEDLAAKVGRVMAAGLQAAATGNGDRGIDFALDAFEQGLRAHPGAVPPRIEHCCCAPPAIQQRMAALGVIDSSAAGFAYNLGDAYLRNRPSAEMAWMWPHRDMLDRGVLVCAHSDAPVCERNPFLGMWSMVTRKTASGASLGAGQAITPLEAMRCYTANPARAEGQAARKGTLSPGKLADLIVLDRDPCAVDPDEIRHTQVLATLVGGQATYRAAGAPSWADELPMRE”, for which the protein production result is on record as “failed”.

For the sequence “MQYINIANRGVKSLSPYQAGKPIEELERELGISNIVKLASNENPFGFPESAKKAIFEQLDKLTRYPDANGFELKQTIAKKFGVQPNQITLGNGSNDLLELFAHTFATEGDEIMYSQYAFIVYPLVTKAINAIVKEIPAKNWGHDLQGFLTALSDKTKLIYIANPNNPTGNFLTSQEIEDFLAEVPENVIVVLDEAYTEFTRSEERVDSFSLLKKYSNLIISRSLSKAYGLAGLRIGYAVSNPEIADLLNRVRQPFNCNSLALTAAVAVMNDDKFVEKVAENNRIEMRRYEDFCQKNQLDYIPSKGNFITIDFKQPAAPIYDALLREGVIVRPIAGYGMPNHLRISIGLPEENDKFFTALSKVLKFA”, the protein production entry is given as “not failed”.
